Measured values taken from patent US10800847.

Tests used:
[1] = target: HLA-A*2902 (A29) single antigen on beads (human); assay: Luminex single-antigen regular beads (#7), IVIg 1:4
[2] = target: HLA-A*3402 (A34) single antigen on beads (human); assay: as above
[3] = target: HLA-A*3201 (A32) single antigen on beads (human); assay: as above
[4] = target: HLA-A*3002 (A30) single antigen on beads (human); assay: as above
[5] = target: HLA-A*3101 (A31) single antigen on beads (human); assay: as above
[6] = target: HLA-A*3301 (A33) single antigen on beads (human); assay: as above
[7] = target: HLA-A*3303 (A33) single antigen on beads (human); assay: as above
[8] = target: HLA-A*6601 (A66) single antigen on beads (human); assay: as above
[9] = target: HLA-A*6801 (A68) single antigen on beads (human); assay: as above
[10] = target: HLA-A*2902 (A29) single antigen on beads (human); assay: Luminex, iBead vs regular bead, IVIg 1:4
[11] = target: HLA-A*3201 (A32) single antigen on beads (human); assay: Luminex, iBead vs regular bead, IVIg 1:4
[12] = target: HLA-A*3002 (A30) single antigen on beads (human); assay: Luminex, iBead vs regular bead, IVIg 1:4
[13] = target: HLA-A*3401 (A34) single antigen on beads (human); assay: Luminex, iBead vs regular bead, IVIg 1:4
[14] = target: HLA-A*3301 (A33) single antigen on beads (human); assay: Luminex, iBead vs regular bead, IVIg 1:4
[15] = target: HLA-A*6602 (A66) single antigen on beads (human); assay: Luminex, iBead vs regular bead, IVIg 1:4
[16] = target: HLA-A*6601 (A66) single antigen on beads (human); assay: Luminex, iBead vs regular bead, IVIg 1:4
[17] = target: HLA-A*6802 (A68) single antigen on Luminex beads (human); assay: Luminex single antigen bead assay, regular beads (#7), IVIg 1:8
[18] = target: HLA-A*3201 (A32) single antigen on beads (human); assay: Luminex, iBead vs regular bead, IVIg 1:8
[19] = target: HLA-A*3002 (A30) single antigen on beads (human); assay: Luminex, iBead vs regular bead, IVIg 1:8
[20] = target: HLA-Cw*0102 (Cw1) (human); assay: Luminex, iBeads (#6), 1:8
[21] = target: HLA-A*4301 (A43) single antigen on beads (human); assay: Luminex single-antigen regular beads (#7), IVIg 1:8
[22] = target: HLA-A*7401 (A74) single antigen on Luminex beads (human); assay: Luminex single antigen bead assay, iBeads (#6), IVIg 1:8
[23] = target: HLA-Cw*0801 (Cw8) (human); assay: Luminex, regular beads (#7), 1:8
HLA-B*1501 (B62) (human) = assay: Luminex regular beads (#7), IVIg diluted 1:8
[24] = target: HLA-A*6802 (A68) single antigen on Luminex beads (human); assay: Luminex single antigen bead assay, iBeads vs regular beads, IVIg 1:8
[25] = target: HLA-A*4301 (A43) single antigen on beads (human); assay: Luminex, iBead vs regular bead, IVIg 1:8
[26] = target: HLA-Cw*0401 (Cw4) (human); assay: Luminex, iBeads (#6), 1:8
[27] = target: HLA-Cw*0202 (Cw2) (human); assay: Luminex, iBeads (#6), 1:8
[28] = target: HLA-A*7401 (A74) single antigen on Luminex beads (human); assay: Luminex single antigen bead assay, iBeads vs regular beads, IVIg 1:8
[29] = target: HLA-A*6602 (A66) single antigen on beads (human); assay: Luminex, iBead vs regular bead, IVIg 1:8
HLA-B*1516 (B63) (human) = assay: iBead MFI against regular-bead MFI, IVIg diluted 1:8
[30] = target: HLA-B*4006 (B61) single antigen on Luminex beads (human); assay: Luminex single antigen, regular beads (#7), IVIg 1:8
[31] = target: HLA-B*3801 (B38) single antigen on Luminex beads (human); assay: as above
[32] = target: HLA-B*3901 (B39) single antigen on Luminex beads (human); assay: as above
[33] = target: HLA-B*4001 (B60) single antigen on Luminex beads (human); assay: as above
[34] = target: HLA-B*4501 (B45) single antigen on Luminex beads (human); assay: as above
[35] = target: HLA-B*3501 (B35) single antigen on Luminex beads (human); assay: as above
[36] = target: HLA-B*4002 (B61) single antigen on Luminex beads (human); assay: as above
[37] = target: HLA-B*3701 (B37) single antigen on Luminex beads (human); assay: as above
[38] = target: HLA-B*4402 (B44) single antigen on Luminex beads (human); assay: as above
[39] = target: Albumin on negative control beads (serum albumin, HSA/BSA) (human or bovine); assay: Luminex single antigen beads, iBeads (#6), 1:8
[40] = target: HLA-A*0301 (A3) on single antigen beads (human) (UniProt P04439); assay: Luminex single antigen beads, iBeads (#6), 1:8

Substance	MFI [17]	Difference % (iBead MFI vs regular bead MFI) [18]	Difference % (iBead MFI vs regular bead MFI) [19]	MFI [20]	MFI [21]	MFI [22]	MFI [23]	MFI (HLA-B*1501 (B62) (human))	Difference % (iBead MFI against regular bead MFI) [24]	Difference % (iBead MFI vs regular bead MFI) [25]	MFI [26]	MFI [27]	Difference % (iBead MFI against regular bead MFI) [28]	Difference % (iBead MFI vs regular bead MFI) [29]	Difference % (iBead vs regular bead) (HLA-B*1516 (B63) (human))	also measured
IVIg Sandoglobulin (Novartis, Basel, Switzerland) (antibody)	–	–	–	–	–	–	–	–	–	–	–	–	–	–	–	MFI [1]: 200 MFI; MFI [2]: 0 MFI; MFI [3]: 255 MFI; MFI [4]: 174 MFI; MFI [5]: 0 MFI; MFI [6]: 185 MFI; MFI [7]: 0 MFI; MFI [8]: 93 MFI; MFI [9]: 0 MFI; Difference % (iBead MFI vs regular bead MFI) [10]: 366%; Difference % (iBead MFI vs regular bead MFI) [11]: 202%; Difference % (iBead MFI vs regular bead MFI) [12]: 202%; Difference % (iBead MFI vs regular bead MFI) [13]: 80%; Difference % (iBead MFI vs regular bead MFI) [14]: 270%; Difference % (iBead MFI vs regular bead MFI) [15]: 111%; Difference % (iBead MFI vs regular bead MFI) [16]: 742%
IVIg Gamunex-C Lot NKLK1 (antibody)	1330 MFI	116%	151%	1060 MFI	1170 MFI	515 MFI	4540 MFI	15 MFI	46%	–	–	–	–	–	–	–
IVIg Octagam (Octapharma, Lachen, Switzerland) (antibody)	1750 MFI	-30%	-31%	1780 MFI	–	–	4420 MFI	–	–	-11%	2010 MFI	1840 MFI	-59%	–	–	–
IVIg Gamunex-C Lot NKLG1 (antibody)	–	–	–	–	–	3900 MFI	–	0 MFI	228%	186%	3730 MFI	–	486%	372%	-36%	–
IVIg GamaSTAN S/D (Talecris Biotherapeutics, USA) (antibody)	–	–	–	–	1910 MFI	–	–	–	–	–	–	8100 MFI	–	83%	-7%	–
Octagam (IVIg, Octapharma, Lachen, Switzerland) (antibody)	–	–	–	–	–	–	–	–	–	–	–	–	–	–	–	MFI [30]: 4970 MFI; MFI [31]: 1000 MFI; MFI [32]: 0 MFI; MFI [33]: 987 MFI; MFI [34]: 956 MFI; MFI [35]: 964 MFI; MFI [36]: 271 MFI; MFI [37]: 9970 MFI; MFI [38]: 4000 MFI; MFI [39]: 1670 MFI; MFI [40]: 0 MFI
